Measurements as given in PMC4837482, “The complex binding mode of the peptide hormone H2 relaxin to its receptor RXFP1” (Nature Communications, 2016).
Residue numbers refer to the chain shown, from its start.

Assays:
Experiment in all cases: cAMP activity assay (pCRE β-galactosidase reporter), transfected HEK293T cells
Type in all cases: cell-based
RXFP1 A55L = target: T1, RXFP1 A55L (Homo sapiens, UniProt Q9HBX9, A77L); details: construct A55L, ±s.e.m.
T1 construct: cells expressing full-length RXFP1 and mutants; expressed in transfected cells; host or cells: HEK293T
T1 sequence (Q9HBX9 23-757 A77L limits assumed): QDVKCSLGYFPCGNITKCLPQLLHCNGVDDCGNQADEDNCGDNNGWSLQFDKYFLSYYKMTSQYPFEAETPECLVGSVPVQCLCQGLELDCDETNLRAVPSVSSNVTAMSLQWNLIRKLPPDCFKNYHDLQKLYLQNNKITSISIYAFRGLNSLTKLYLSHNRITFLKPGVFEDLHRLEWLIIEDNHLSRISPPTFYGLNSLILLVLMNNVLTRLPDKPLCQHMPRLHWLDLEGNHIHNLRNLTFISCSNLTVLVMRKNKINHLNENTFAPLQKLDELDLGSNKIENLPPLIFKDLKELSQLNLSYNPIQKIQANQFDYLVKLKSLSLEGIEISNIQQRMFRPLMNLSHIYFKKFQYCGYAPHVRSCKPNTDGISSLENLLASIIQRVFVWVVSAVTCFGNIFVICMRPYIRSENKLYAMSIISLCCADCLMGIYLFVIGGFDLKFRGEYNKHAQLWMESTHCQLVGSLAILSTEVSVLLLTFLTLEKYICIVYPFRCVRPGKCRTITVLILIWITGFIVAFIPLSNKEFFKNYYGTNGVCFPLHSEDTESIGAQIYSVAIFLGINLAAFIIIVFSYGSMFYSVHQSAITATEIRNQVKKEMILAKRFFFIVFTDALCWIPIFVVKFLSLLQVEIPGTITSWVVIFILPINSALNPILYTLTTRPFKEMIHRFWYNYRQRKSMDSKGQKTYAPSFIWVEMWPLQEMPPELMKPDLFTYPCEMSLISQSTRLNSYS
In short: (§1)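 Stim: H2 relaxin in minimal media/1% DMSO; +ctrl 5 μM Forskolin, −ctrl vehicle. Plates frozen −80 °C o/n, lysed 10 min + 10 min in Na2HPO4 pH 8.0 buffers, CPRG substrate, A570. Data = % Forskolin max.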

RXFP1 F66A = target: T2, RXFP1 F66A (Homo sapiens, UniProt Q9HBX9, F88A); details: construct F66A, ±s.e.m.
T2 construct: cells expressing full-length RXFP1 and mutants; expressed in transfected cells; host or cells: HEK293T
T2 sequence (Q9HBX9 23-757 F88A limits assumed): T1 sequence (Q9HBX9 23-757 A77L limits assumed) with L55A, F66A
In short: as §1

RXFP1 N44A = target: T3, RXFP1 N44A (Homo sapiens, UniProt Q9HBX9, N66A); details: construct N44A, ±s.e.m.
T3 construct: transiently transfected human embryonic kidney (HEK) 293T cells expressing full-length RXFP1 and mutants; expressed in transfected cells; host or cells: HEK293T
T3 sequence (Q9HBX9 23-757 N66A limits assumed): T1 sequence (Q9HBX9 23-757 A77L limits assumed) with N44A, L55A
In short: as §1

[1] = percentage of maximum response to 5 μM Forskolin

H2 relaxin: two-chain 6-kDa peptide hormone structurally related to insulin; recombinant human gene-2 H2 relaxin provided by Corthera
H2 relaxin pEC50 (RXFP1 A55L; cAMP reporter): 10.75±0.17 (5)
H2 relaxin Emax (RXFP1 A55L; [1]): 123.59±8.51 (5) %
H2 relaxin pEC50 (RXFP1 F66A; cAMP reporter): 11.20±0.08
H2 relaxin Emax (RXFP1 F66A; [1]): 88.29±3.52 (3) %
H2 relaxin pEC50 (RXFP1 N44A; cAMP reporter): 11.0±0.1 (4)
H2 relaxin Emax (RXFP1 N44A; [1]): 92.16±6.98 (4) %
